Source: patent publication US20240254231A1 (PETMEDIX, published 2024)
Blank lines part the entries; values can stand above or below the binder they belong to.

What was measured:
[1] = molecular target: T1, recombinant human PD-1 ECD-6His protein (Bio-Techne, item BP164049-1 mg) (human, UniProt Q15116 25-170); assay: SPR, mAb captured on protein A chip, PD-1 protein injected
T1 construct: extracellular domain; Bought protein; also called human PD-1-ED-6His; recombinant human PD-1 protein; not shown: hexahistidine tag

canine PD-1 ECD-6His = molecular target: T2, canine PD-1 ECD-6His (canine); assay: SPR multi-cycle kinetics, mAb captured on protein A chip, monomeric PD-1 ECD-6His analyte
T2 construct: also called recombinant canine PD-1-ECD-6His protein; not shown: hexahistidine tag
T2 chain: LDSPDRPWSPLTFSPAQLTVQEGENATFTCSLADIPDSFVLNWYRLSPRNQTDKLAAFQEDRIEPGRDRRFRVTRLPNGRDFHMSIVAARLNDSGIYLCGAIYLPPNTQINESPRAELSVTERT

T1 sequence (Q15116 25-170): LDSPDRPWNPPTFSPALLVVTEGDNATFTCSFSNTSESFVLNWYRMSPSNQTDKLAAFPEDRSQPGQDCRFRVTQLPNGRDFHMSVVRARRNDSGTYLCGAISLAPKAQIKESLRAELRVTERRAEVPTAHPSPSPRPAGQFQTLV

- binding result [1]: no binding (tested: 900 nM)
B1: PMX126 (antibody, V domains shown)
VH: EVQLVESGGDLVKPAGSLRLSCLASGFTFSSYSMSWVRQAPEKGLQSVAGINSDGDRTYYTDAVKGRFTISRDNAKSTVYLQMNSLRAEDTAMYYCVRGFSSFNAFGYWGQGTLVTVSS
VL: DIVMTQTPLSLSVSPGETASISCKASQSLLHSDGNTYLSWFRQKPGQSPHRLIYAVSHRHPGVPDRFSGSGSGTDFTLRISRVEADDAGLYYCGQVIQDPWTFGAGTKVELK
notes: Alexa Fluor 647-labelled in some assays

- binding result [1]: no binding (tested: 900 nM)
B2: PMX127 (antibody, V domains shown)
VH: EVQLVESGGDLVKPGGSLRLSCVASGFSFSRYHMSWVRQAPGKGLQWVAYIVSGGISTSYADAVKGRFTISRDNAKNTLFLQMNSLRAEDTAVYYCATYGSYFFDTWGQGTLVTVSS
VL: DIVMTQTPLSLSVSPGETASIFCKASQSLLHSDGKSYLNWFRQKPGQSPQRLIYRVSNRDPGVPDRFSGSGSGTDFTLRISRVEADDTGLYYCGQVIQDPTFGAGTKVELK
notes: Alexa Fluor 647-labelled in some assays; also called PM127

- binding result (canine PD-1 ECD-6His): binds
B3: PMX152 (antibody, V domains shown)
VH: EVQLVESGGDLVKPGGSLRLSCVASGFTFSRYYMNWVRQAPGKGPQWVAYINNAGSDRNYVDAVKGRFTISRDNAKNTLYLQMNSLRAEDTAVYYCASEIRGVVVVGHLDYWGQGTLVTVSS
VL: SYVLTQLPSKSVTLNQPAHITCGGDNIGSKSVHWYQQKLGQAPVLIIYYDSIRPTGIPERFSGATSGNTATLTISGALAEDEADYYCQVWDSSAKAWVFGEGTQLTVL
notes: also called PM152
